Results from patent publication US20200172619A1.
Where two headings read alike, the source gives them in different places.

Columns and labels:
[1] = target: human TNFR1-Fc fusion protein (human) (UniProt P19438); assay: ELISA, immobilized human TNFR1-Fc
[2] = target: human TNFR1-Fc fusion protein (human) (UniProt P19438); assay: ELISA, human TNFR1-Fc
[3] = target: TNFR1 on the surface of cells (HT1080, HeLa, Kym-1) (human) (UniProt P19438); assay: cell-based or functional assay
[4] = target: TNFR1 on the surface of cells (HT1080, HeLa, Kym-1) (human) (UniProt P19438); assay: cell-based or functional assay; remark: listed apart in the source

Sequence of TNFR1 on the surface of cells (HT1080, HeLa, Kym-1) (human) (P19438 30-455): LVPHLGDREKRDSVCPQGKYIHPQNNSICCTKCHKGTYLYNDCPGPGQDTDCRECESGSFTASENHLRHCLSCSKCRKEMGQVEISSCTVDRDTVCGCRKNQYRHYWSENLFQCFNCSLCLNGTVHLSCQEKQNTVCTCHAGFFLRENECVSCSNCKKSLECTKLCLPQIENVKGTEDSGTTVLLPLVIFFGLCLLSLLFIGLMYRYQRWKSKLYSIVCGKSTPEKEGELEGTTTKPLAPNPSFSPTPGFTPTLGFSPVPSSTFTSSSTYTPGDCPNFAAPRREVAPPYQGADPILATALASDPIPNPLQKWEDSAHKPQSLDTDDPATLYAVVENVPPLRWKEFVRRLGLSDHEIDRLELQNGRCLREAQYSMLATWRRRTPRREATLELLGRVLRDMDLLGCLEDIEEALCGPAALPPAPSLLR
Sequence of human TNFR1-Fc fusion protein (human) (P19438 30-211): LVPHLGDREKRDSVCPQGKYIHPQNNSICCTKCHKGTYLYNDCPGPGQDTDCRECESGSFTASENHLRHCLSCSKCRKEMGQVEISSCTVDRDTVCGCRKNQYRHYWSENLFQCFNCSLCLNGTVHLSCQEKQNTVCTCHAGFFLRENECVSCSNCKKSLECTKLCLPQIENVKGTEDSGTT

ATROSAB (antibody)
EC50 [1]: 0.4 nM | EC50 [2]: 0.09 nM | IL-8 Inhibition IC50 [3]: 136 nM | IC50, Cell death induction [nM] (Kym-1 cells, 0.01 nM TNF) [4]: 64.4 nM | IC50, IL-6 [nM] (HeLa cells, 0.1 nM TNF) [4]: 165 nM | IC50, IL-8 [nM] (HT1080 cells, 0.1 nM TNF) [4]: 84.1 nM | IL-8 Inhibition IC50 [4]: 97.8 nM
